Reference: US20220119534A1 (DRAGONFLY THERAPEUTICS, published 2022)
Residue numbers refer to the chain shown, from its start. Names may count otherwise.

What was measured:
Human CLEC12A-His [1] = target: T1, Human CLEC12A-His (human, UniProt Q5QGZ9 65-265); assay: SPR Biacore 8K 37 C; TriNKET captured on anti-hFc chip, hCLEC12A-His as analyte; 1:1 fit; control sample, n=2
T1 construct: Recombinant soluble protein made in house (Dragonfly Tx); The hCLEC12A spot of the HuProt array is written under this molecule as well; also called hCLEC12A-His; hCLEC12A; not shown: His tag
T1 sequence: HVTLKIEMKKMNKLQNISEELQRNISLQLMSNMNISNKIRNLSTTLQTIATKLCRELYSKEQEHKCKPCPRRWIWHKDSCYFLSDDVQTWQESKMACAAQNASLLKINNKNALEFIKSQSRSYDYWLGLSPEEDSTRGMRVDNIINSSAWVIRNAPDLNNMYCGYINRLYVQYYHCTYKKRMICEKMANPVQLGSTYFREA

[2] = target: T2, Human CD16a V158 (FcγRIIIa V158) (human, UniProt P08637 17-208, biotinylated (site not stated)); assay: SPR; biotinylated CD16a V158 captured on SA chip, TriNKET as analyte; 1:1 kinetic fit; after low pH hold, n=3
T2 construct: V158 is the allele name in mature numbering; also called hCD16aV; hCD16a V158

[3] = target: T3, Human CLEC12A expressed on cells (Ba/F3-hCLEC12A, PL21, HL60) (human, UniProt Q5QGZ9 1-265); assay: cell-based or functional assay
T3 sequence: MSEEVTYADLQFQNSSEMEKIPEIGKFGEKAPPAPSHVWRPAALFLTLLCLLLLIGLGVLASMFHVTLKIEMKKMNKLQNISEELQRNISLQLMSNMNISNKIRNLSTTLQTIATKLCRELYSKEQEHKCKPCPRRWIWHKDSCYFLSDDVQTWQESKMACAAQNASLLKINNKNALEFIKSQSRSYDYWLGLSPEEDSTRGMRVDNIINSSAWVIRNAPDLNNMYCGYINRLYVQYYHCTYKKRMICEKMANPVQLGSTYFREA

[4] = target: T3, Human CLEC12A expressed on cells …; assay: cell-based or functional assay; remark: listed apart in the source
[5] = target: T4, Human CLEC12A-His (recombinant, K244 WT) (human, UniProt Q5QGZ9 65-265); assay: SPR, two-state fit
T4 construct: Made in house (Dragonfly Tx); also called hCLEC12A; hCLEC12A-His; not shown: His tag
T4 sequence: T1 sequence

Human CLEC12A-K244Q-His = target: T5, Human CLEC12A-K244Q-His (human, UniProt Q5QGZ9 65-265); assay: SPR, two-state fit
T5 construct: also called hCLEC12A (Q244); CLEC12A (Q244); not shown: His tag
T5 chain: T1 sequence with K180Q

Human CD16a V158 = target: T6, Human CD16a V158 (human, UniProt P08637 17-208, biotinylated); assay: SPR; sample after 4 weeks at 40 C in CST pH 7.0
T6 construct: Bought recombinant receptor; also called hCD16a (V158); hFcγRIIIa V158

mFc-hNKG2D = target: T7, mFc-hNKG2D (human, UniProt P26718 73-216); assay: SPR; sample after 4 weeks at 40 C in CST pH 7.0
T7 construct: extracellular domain; Recombinant mFc-tagged NKG2D dimer, made in house; also called human NKG2D; not shown: mouse Fc tag
T7 sequence (looked up): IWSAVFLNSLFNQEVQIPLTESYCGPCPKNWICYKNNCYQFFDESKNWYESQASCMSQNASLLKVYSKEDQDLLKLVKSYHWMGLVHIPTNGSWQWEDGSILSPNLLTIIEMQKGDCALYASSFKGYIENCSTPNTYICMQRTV

Human CLEC12A-His [6] = target: T8, Human CLEC12A-His (human, UniProt Q5QGZ9 65-265); assay: SPR; sample after 4 weeks at 40 C in CST pH 7.0
T8 construct: Recombinant soluble protein made in house; also called hCLEC12A-His; hCLEC12A; not shown: His tag
T8 sequence: T1 sequence

[7] = target: T9, human CLEC12A expressed on cells (human, UniProt Q5QGZ9 1-265); assay: flow cytometry, hCLEC12A+ Ba/F3
T9 construct: Transduced isogenic cells or endogenous expression on AML cells; also called RMA-hCLEC12A; Ba/F3-hCLEC12A
T9 sequence: T3 sequence

[8] = target: T9, human CLEC12A expressed on cells; assay: flow cytometry, HL60
[9] = target: T10, recombinant human CD32a H131 (human, UniProt P12318 36-218, limits assumed, biotinylated); assay: SPR 25C, steady state, average
T10 construct: also called FcγRIIa H131
T10 sequence (looked up): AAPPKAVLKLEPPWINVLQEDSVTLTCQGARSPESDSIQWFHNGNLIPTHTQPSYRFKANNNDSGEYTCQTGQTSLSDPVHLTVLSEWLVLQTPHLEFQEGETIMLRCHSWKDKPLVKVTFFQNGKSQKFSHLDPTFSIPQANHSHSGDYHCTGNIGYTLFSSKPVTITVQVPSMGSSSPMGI
Description: Human and cyno CD64, high and low affinity alleles of CD16a (V158 and F158, respectively), two alleles of CD32a (H131 and R131), CD16b, CD32b and cynomolgus CD16 were captured via biotin on a primed Biacore chip, prepared according to the manufacturer's instructions.
For no-signal reference, a 0 nM blank cycle at the start of each concentration series and receptor free chip surface were used. Each experimental cycle included association, dissociation and regeneration steps. All steps were executed at a flow rate of 30 μL/min and at 25° C.

HER2 = assay: SPR specificity test; unrelated recombinant antigen at up to 500 nM
CD33 = target: T11, CD33; assay: as above
T11 construct: recombinant protein

BCMA = target: T12, BCMA; assay: as above
T12 chain: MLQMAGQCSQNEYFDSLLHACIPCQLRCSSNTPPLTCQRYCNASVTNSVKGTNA

T2 sequence (P08637 17-208 F176V limits assumed): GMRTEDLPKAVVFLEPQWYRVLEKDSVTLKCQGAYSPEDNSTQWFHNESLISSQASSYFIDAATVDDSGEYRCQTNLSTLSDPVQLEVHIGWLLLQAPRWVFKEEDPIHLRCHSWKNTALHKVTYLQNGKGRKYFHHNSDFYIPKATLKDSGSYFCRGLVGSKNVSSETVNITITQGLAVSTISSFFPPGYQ
T6 sequence (P08637 17-208 F176V limits assumed): as above

B1: F3'-1602 TriNKET (bispecific antibody, human IgG1, kappa)
chain: QLQLQESGPGLVKPSETLSLTCTVSGFSLTNYGLHWIRQPPGKCLEWIGVIWSGGKTDYNPSLKSRVTISKDTSKNQFSLKLSSVQAADTAVYYCAKYDYDDSLDYWGQGTLVTVSSGGGGSGGGGSGGGGSGGGGSDIQMTQSPSSLSASVGDRVTITCHASQNINFWLSWYQQKPGKAPKLLIYEASNLHTGVPSRFSGSGSGTRFTLTISSLQPEDIATYYCQQSHSYPLTFGCGTKLEIKGSDKTHTCPPCPAPELLGGPSVFLFPPKPKDTLMISRTPEVTCVVVDVSHEDPEVKFNWYVDGVEVHNAKTKPREEQYNSTYRVVSVLTVLHQDWLNGKEYKCKVSNKALPAPIEKTISKAKGQPREPRVYTLPPCRDELTKNQVSLTCLVKGFYPSDIAVEWESNGQPENNYKTTPPVLVSDGSFTLYSKLTVDKSRWQQGNVFSCSVMHEALHNHYTQKSLSLSPG
heavy: EVQLVESGGGLVKPGGSLRLSCAASGFTFSSYSMNWVRQAPGKGLEWVSSISSSSSYIYYADSVKGRFTISRDNAKNSLYLQMNSLRAEDTAVYYCARGAPIGAAAGWFDPWGQGTLVTVSSASTKGPSVFPLAPSSKSTSGGTAALGCLVKDYFPEPVTVSWNSGALTSGVHTFPAVLQSSGLYSLSSVVTVPSSSLGTQTYICNVNHKPSNTKVDKKVEPKSCDKTHTCPPCPAPELLGGPSVFLFPPKPKDTLMISRTPEVTCVVVDVSHEDPEVKFNWYVDGVEVHNAKTKPREEQYNSTYRVVSVLTVLHQDWLNGKEYKCKVSNKALPAPIEKTISKAKGQPREPQVCTLPPSRDELTENQVSLTCLVKGFYPSDIAVEWESNGQPENNYKTTPPVLDSDGSFFLYSWLTVDKSRWQQGNVFSCSVMHEALHNHYTQKSLSLSPG
light: DIQMTQSPSSVSASVGDRVTITCRASQGISSWLAWYQQKPGKAPKLLIYAASSLQSGVPSRFSGSGSGTDFTLTISSLQPEDFATYYCQQGVSFPRTFGGGTKVEIKRTVAAPSVFIFPPSDEQLKSGTASVVCLLNNFYPREAKVQWKVDNALQSGNSQESVTEQDSKDSTYSLSSTLTLSKADYEKHKVYACEVTHQGLSSPVTKSFNRGEC
notes: Trispecific F3' format: CLEC12A scFv-Fc paired with NKG2D Fab-Fc; Stressed and control samples of the stability studies are the same molecule; also called AB0237
Human CLEC12A-His [1]
  Kd: 0.98 nM
  koff: 0.000735 s⁻¹
  kon: 750000 M⁻¹ s⁻¹
[2]
  Kd: 210 nM
  koff: 0.0229 s⁻¹
  kon: 109000 M⁻¹ s⁻¹

B2: AB0089 TriNKET (bispecific antibody, human IgG1, kappa)
chain: B1 chain with S53V, K56A, K71V, Y98G, D101G, S103T, R207D, I220F
heavy: B1 heavy
light: B1 light
notes: F3' format heterodimer of three chains; human IgG1 Fc with EW-RVT and Y349C/S354C mutations; also called AB0089 Lot AB0089-002; CLEC12A TriNKET AB0089
[3]
  EC50, KHYG1-CD16aV cytotoxicity assay; after 4 wks 40C in CST pH 7.0: 0.16 nM
  EC50, KHYG1-CD16aV cytotoxicity assay; control sample: 0.13 nM
[4]
  EC50, NK cell induction of IFNγ and CD107a in co-culture with PL21 cells (mean of three donors): 0.08 nM
[5]
  Kd: 0.6 nM
Human CLEC12A-K244Q-His
  Kd: 1.17 nM

B3: AB0192 TriNKET (other)
chain: EVQLVESGGGVVQPGGSLRLSCAASGFTFNAFGMHWVRQAPGKCLEWVAFISSGSTSIYYANTVKGRFTISRDNSKNTLYLQMNSLRAEDTAVYYCARDGYPTGGAMDYWGQGTSVTVSSGGGGSGGGGSGGGGSGGGGSDIQMTQSPSSLSASVGDRVTITCKASQDIYNYLSWFQQKPGKAPKPLIYRANILVSGVPSRFSGSGSGQDYTFTISSLQPEDIATYYCLQFDAFPFTFGCGTKLEIKGSDKTHTCPPCPAPELLGGPSVFLFPPKPKDTLMISRTPEVTCVVVDVSHEDPEVKFNWYVDGVEVHNAKTKPREEQYNSTYRVVSVLTVLHQDWLNGKEYKCKVSNKALPAPIEKTISKAKGQPREPRVYTLPPCRDELTKNQVSLTCLVKGFYPSDIAVEWESNGQPENNYKTTPPVLVSDGSFTLYSKLTVDKSRWQQGNVFSCSVMHEALHNHYTQKSLSLSPG
heavy: B1 heavy
light: B1 light
notes: the condition stands under assay; also called AB0192 Lot AB0192-005
Human CD16a V158
  Kd: 174 nM
  koff: 0.0194 s⁻¹
  kon: 111000 M⁻¹ s⁻¹
mFc-hNKG2D
  Kd: 653 nM
  koff: 0.121 s⁻¹
  kon: 185000 M⁻¹ s⁻¹
Human CLEC12A-His [6]
  Kd: 1.96 nM
  koff: 0.00147 s⁻¹
  kon: 749000 M⁻¹ s⁻¹

B4: F3'-1602 TriNKET (other)
chain: B1 chain
heavy: B1 heavy
light: B1 light
notes: CLEC12A scFv-Fc, NKG2D A49MI Fab-Fc, human IgG1 Fc; also called AB0237
[7]
  EC50: 2 nM
  Max binding MFI: 14700 MFI
[8]
  EC50: 1.1 nM
[9]
  Kd: 900 nM
HER2
  Response (RU): 0.1 RU
CD33
  Response (RU): 0.2 RU
BCMA
  Response (RU): 0.2 RU
